Several values for one entry are separate records, joined by “and”; a condition that tells them apart may be missing. Equal values may be shown once. Read-outs that look alike come from different tables or passages of the source.
Columns and labels:
Test in all cases: BLI
[1] = target: T1, human eye lens-specific protein 20, histidine-tagged (human) (UniProt P55344)
T1 sequence: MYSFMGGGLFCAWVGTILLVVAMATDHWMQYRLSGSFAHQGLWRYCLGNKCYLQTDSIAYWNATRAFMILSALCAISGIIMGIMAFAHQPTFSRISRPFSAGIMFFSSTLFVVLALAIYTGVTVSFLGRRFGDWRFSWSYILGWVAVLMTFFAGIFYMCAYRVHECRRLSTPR

[2] = target: T2, human claudin-19 (human, UniProt Q8N6F1)
[3] = target: T3, human claudin-18 splice variant 18.2 (human, UniProt P56856-2)
[4] = target: T4, human claudin-18 splice variant 18.1 (human, UniProt P56856)
[5] = target: T5, human claudin-3 (human, UniProt O15551)
T5 sequence (O15551 whole entry): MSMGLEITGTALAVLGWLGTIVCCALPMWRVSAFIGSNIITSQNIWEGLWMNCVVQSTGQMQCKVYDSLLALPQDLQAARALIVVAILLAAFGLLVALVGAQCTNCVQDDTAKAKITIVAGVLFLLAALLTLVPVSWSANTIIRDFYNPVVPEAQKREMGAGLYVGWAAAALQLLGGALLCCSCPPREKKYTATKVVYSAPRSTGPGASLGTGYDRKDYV

[6] = target: murine claudin-3 (mouse, UniProt Q9Z0G9)
Sequence of murine claudin-3 (Q9Z0G9 whole entry): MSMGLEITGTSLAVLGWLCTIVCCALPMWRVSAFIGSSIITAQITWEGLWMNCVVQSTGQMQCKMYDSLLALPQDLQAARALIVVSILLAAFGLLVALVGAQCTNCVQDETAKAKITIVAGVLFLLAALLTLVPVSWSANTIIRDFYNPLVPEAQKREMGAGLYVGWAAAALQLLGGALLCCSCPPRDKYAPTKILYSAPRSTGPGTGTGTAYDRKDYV

[7] = target: T6, human claudin-1 (human, UniProt O95832)
T6 sequence (O95832 whole entry): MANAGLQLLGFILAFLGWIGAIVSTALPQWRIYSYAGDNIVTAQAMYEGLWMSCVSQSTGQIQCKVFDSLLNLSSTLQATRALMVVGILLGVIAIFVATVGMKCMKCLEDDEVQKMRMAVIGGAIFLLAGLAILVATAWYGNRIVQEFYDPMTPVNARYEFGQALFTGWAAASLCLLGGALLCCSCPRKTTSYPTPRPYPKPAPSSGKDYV

[8] = target: T7, human claudin-9 (human, UniProt O95484)
[9] = target: murine claudin-4 (mouse, UniProt O35054)
[10] = target: T8, human claudin-6 (human, UniProt P56747)
[11] = target: T9, murine claudin-15 (mouse, UniProt Q9Z0S5)
T9 sequence (Q9Z0S5 whole entry): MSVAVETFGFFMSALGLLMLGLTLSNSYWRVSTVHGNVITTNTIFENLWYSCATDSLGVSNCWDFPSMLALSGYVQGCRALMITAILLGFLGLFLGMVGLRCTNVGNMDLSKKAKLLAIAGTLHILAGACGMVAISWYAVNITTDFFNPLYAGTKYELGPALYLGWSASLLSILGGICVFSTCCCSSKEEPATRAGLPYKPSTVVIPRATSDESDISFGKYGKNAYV

[12] = target: T10, human claudin-17 (human, UniProt P56750)
[13] = target: T11, human claudin-5 (human, UniProt O00501)
T11 sequence (O00501 whole entry): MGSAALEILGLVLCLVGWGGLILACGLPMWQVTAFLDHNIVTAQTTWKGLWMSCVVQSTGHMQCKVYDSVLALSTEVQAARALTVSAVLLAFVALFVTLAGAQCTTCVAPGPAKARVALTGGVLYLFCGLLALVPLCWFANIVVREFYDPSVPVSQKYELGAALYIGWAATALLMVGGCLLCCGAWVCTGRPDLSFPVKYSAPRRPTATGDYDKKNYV

[14] = target: T12, human claudin-4 (human, UniProt O14493)
T12 sequence (O14493 whole entry): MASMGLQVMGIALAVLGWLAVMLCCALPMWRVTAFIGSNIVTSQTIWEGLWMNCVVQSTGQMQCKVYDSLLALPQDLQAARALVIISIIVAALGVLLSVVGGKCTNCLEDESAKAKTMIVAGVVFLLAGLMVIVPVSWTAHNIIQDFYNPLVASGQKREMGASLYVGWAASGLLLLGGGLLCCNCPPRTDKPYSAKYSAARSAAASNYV

[15] = target: T2, human claudin-19; remark: listed apart in the source
[16] = target: T3, human claudin-18 splice variant 18.2; remark: listed apart in the source
[17] = target: human peripheral myelin protein 22 (Homo sapiens, UniProt Q01453)
Sequence of human peripheral myelin protein 22 (Q01453 whole entry, canonical isoform): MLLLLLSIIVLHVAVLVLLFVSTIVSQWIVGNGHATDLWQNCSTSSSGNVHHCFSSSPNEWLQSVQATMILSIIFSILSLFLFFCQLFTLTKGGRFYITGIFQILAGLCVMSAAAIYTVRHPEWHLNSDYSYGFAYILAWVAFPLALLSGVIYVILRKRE

[18] = target: T4, human claudin-18 splice variant 18.1; remark: listed apart in the source
[19] = target: T5, human claudin-3; remark: listed apart in the source
[20] = target: T6, human claudin-1; remark: listed apart in the source
[21] = target: Kune-kune from Drosophila melanogaster (Drosophila melanogaster, UniProt A1Z6H0)
[22] = target: T7, human claudin-9; remark: listed apart in the source
[23] = target: T8, human claudin-6; remark: listed apart in the source
[24] = target: T9, murine claudin-15; remark: listed apart in the source
[25] = target: T10, human claudin-17; remark: listed apart in the source
[26] = target: T11, human claudin-5; remark: listed apart in the source
[27] = target: T12, human claudin-4; remark: listed apart in the source
[28] = target: human occludin (Homo sapiens, UniProt Q16625)
Sequence of human occludin (Q16625 whole entry, the tested form may be a part): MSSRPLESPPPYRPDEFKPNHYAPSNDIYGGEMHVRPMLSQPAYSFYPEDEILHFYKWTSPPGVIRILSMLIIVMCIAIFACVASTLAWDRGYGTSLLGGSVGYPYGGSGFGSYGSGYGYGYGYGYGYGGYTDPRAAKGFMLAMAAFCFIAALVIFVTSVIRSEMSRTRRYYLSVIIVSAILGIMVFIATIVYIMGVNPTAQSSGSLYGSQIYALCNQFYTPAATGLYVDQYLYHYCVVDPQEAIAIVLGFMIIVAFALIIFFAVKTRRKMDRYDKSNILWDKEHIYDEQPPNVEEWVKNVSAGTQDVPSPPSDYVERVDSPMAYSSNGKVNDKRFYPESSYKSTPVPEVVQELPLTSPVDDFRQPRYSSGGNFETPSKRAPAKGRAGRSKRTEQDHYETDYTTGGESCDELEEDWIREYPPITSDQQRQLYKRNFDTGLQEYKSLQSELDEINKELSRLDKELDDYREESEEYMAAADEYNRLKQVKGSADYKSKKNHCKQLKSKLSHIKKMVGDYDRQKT

[29] = target: C-terminal domain of Clostridium perfringens enterotoxin, tag removed (Clostridium perfringens, UniProt P01558)
[30] = target: T13, human claudin-17 (human, UniProt P56750 1-224)
T13 sequence: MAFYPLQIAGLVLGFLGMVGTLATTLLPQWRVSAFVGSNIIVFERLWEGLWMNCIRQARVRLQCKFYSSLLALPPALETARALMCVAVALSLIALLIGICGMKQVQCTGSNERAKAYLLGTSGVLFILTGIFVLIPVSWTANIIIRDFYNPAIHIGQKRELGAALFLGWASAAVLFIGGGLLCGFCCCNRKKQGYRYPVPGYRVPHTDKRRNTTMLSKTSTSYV

[31] = target: T14, murine claudin-4 (mouse, UniProt O35054 1-210)
T14 sequence: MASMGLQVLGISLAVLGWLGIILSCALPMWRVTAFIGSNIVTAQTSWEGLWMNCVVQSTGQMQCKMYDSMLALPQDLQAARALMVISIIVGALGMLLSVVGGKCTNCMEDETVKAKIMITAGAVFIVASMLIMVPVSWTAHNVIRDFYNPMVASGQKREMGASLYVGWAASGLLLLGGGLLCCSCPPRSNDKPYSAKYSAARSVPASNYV

[32] = target: T15, human claudin-9 (human, UniProt O95484 1-217)
T15 sequence: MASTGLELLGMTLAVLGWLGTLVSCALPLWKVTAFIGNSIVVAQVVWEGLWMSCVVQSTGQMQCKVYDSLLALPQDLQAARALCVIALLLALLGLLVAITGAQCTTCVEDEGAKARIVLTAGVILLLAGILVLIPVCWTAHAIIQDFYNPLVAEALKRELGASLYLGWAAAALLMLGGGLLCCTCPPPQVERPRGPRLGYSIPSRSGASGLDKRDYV

[33] = target: T16, human claudin-19 (human, UniProt Q8N6F1 1-224)
T16 sequence: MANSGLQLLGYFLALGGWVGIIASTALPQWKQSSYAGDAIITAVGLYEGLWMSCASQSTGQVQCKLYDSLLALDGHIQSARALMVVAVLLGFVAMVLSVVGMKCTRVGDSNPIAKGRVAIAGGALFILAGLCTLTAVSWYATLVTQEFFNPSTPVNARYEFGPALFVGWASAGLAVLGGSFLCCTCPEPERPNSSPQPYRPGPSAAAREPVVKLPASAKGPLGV

[34] = target: T17, human claudin-6 (human, UniProt P56747 1-220)
T17 sequence: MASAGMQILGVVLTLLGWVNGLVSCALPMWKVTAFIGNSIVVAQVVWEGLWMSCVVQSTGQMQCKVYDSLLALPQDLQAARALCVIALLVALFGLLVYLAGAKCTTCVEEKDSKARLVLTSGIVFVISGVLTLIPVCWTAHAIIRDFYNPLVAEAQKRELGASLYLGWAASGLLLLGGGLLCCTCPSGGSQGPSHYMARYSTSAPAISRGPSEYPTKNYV

B1: COP-1 synthetic antibody fragment (sFab) without histidine tag (Fab, V domains shown)
VH: EVQLVESGGGLVQPGGSLRLSCAASGFNFSSSYIHWVRQAPGKGLEWVASISSSSGSTSYADSVKGRFTISADTSKNTAYLQMNSLRAEDTAVYYCARWFHPWWWWEYLFRGAIDYWGQGTLVTVSS
VL: DIQMTQSPSSLSASVGDRVTITCRASQSVSSAVAWYQQKPGKAPKLLIYSASSLYSGVPSRFSGSRSGTDFTLTISSLQPEDFATYYCQQSSSSLITFGQGTKVEIK
With B1 the Kd [1] was 2780 nM and the koff [1] was 0.11 s⁻¹.

B2: COP-1 synthetic antibody fragment (sFab) with C-terminal histidine tag (Fab, V domains shown)
VH: EVQLVESGGGLVQPGGSLRLSCAASGFNFSSSYIHWVRQAPGKGLEWVASISSSSGSTSYADSVKGRFTISADTSKNTAYLQMNSLRAEDTAVYYCARWFHPWWWWEYLFRGAIDYWGQGTLVTVSS
VL: DIQMTQSPSSLSASVGDRVTITCRASQSVSSAVAWYQQKPGKAPKLLIYSASSLYSGVPSRFSGSRSGTDFTLTISSLQPEDFATYYCQQSSSSLITFGQGTKVEIK
With B2 the Kd [2] was 62.4 ± 1.1 nM, the Kd [3] was 62.8 nM and 55.6 nM and the Kd [4] was 83.4 nM and 56.7 nM. For the same binder, the Kd [5] was 64.2 ± 1.1 nM, the Kd [6] was 90.5 ± 1.2 nM and the Kd [7] was 76.3 nM and 73.2 nM. The Kd [8] was 69.9 ± 1.2 nM, the Kd [9] was 99.6 ± 1.2 nM and the Kd [10] was 59 ± 0.9 nM. The Kd [11] was 63.3 nM and 61.2 nM, the Kd [12] was 65.5 ± 0.9 nM and the Kd [13] was 72 nM and 65.5 nM. It also gave a Kd [14] of 72.8 ± 0.9 nM, a Kd [15] of 62.2 ± 0.4 nM and a koff [15] of 0.0011 s⁻¹. For the same binder, the kon [15] was 17000 M⁻¹ s⁻¹, the t1/2 [15] was 10.5 min and the Kd [16] was 66.4 ± 0.5 nM. The koff [16] was 0.0009 s⁻¹, the kon [16] was 13000 M⁻¹ s⁻¹ and the t1/2 [16] was 12.8 min. For the same binder, the Kd [17] was 109.5 ± 0.8 nM, the koff [17] was 0.002 s⁻¹ and the kon [17] was 18000 M⁻¹ s⁻¹. It also gave a t1/2 [17] of 5.8 min, a Kd [18] of 92.4 ± 0.5 nM and a koff [18] of 0.0014 s⁻¹. For the same binder, the kon [18] was 16000 M⁻¹ s⁻¹, the t1/2 [18] was 8.3 min and the Kd [19] was 57.9 ± 0.5 nM. It also gave a koff [19] of 0.0012 s⁻¹, a kon [19] of 21000 M⁻¹ s⁻¹ and a t1/2 [19] of 9.6 min. The Kd [20] was 61.3 ± 0.5 nM, the koff [20] was 0.0009 s⁻¹ and the kon [20] was 15000 M⁻¹ s⁻¹. The t1/2 [20] was 12.8 min, the Kd [21] was 238 ± 2.9 nM and the koff [21] was 0.0044 s⁻¹. It also gave a kon [21] of 18000 M⁻¹ s⁻¹, a t1/2 [21] of 2.7 min and a Kd [22] of 66 ± 0.4 nM. It also gave a koff [22] of 0.0015 s⁻¹, a kon [22] of 22000 M⁻¹ s⁻¹ and a t1/2 [22] of 7.7 min. The Kd [23] was 59.5 ± 0.4 nM, the koff [23] was 0.0011 s⁻¹ and the kon [23] was 18000 M⁻¹ s⁻¹. For the same binder, the t1/2 [23] was 10.5 min, the Kd [24] was 59 ± 0.5 nM and the koff [24] was 0.0012 s⁻¹. For the same binder, the kon [24] was 21000 M⁻¹ s⁻¹, the t1/2 [24] was 9.6 min and the Kd [25] was 80.2 ± 0.6 nM. It also gave a koff [25] of 0.0015 s⁻¹, a kon [25] of 19000 M⁻¹ s⁻¹ and a t1/2 [25] of 7.7 min. For the same binder, the Kd [26] was 75.8 ± 0.5 nM, the koff [26] was 0.0015 s⁻¹ and the kon [26] was 19000 M⁻¹ s⁻¹. For the same binder, the t1/2 [26] was 7.7 min, the Kd [27] was 70.6 nM and 106 nM and the binding result [28] was “no binding (tested: 500 nM)”. B2: no binding [29].

B3: C-terminal domain of Clostridium perfringens enterotoxin, histidine-tagged (domain or fragment)
chain: EILDLAAATERLNLTDALNSNPAGNLYDWRSSNSYPWTQKLNLHLTITATGQKYRILASKIVDFNIYSNNFNNLVKLEQSLGDGVKDHYVDISLDAGQYVLVMKANSSYSGNYPYSILFQKF
In the case of B3, the Kd [30] is reported as 27 nM, the Kd [31] is reported as less than 20 nM and the Kd [32] is reported as less than 20 nM. The Kd [33] was 27.5 nM and the Kd [34] was 51.4 nM.

— paper PMC12198772 (PNAS Nexus, 2025)
